Reference: patent US20190345227A1 (HONG KONG UNIVERSITY OF SCIENCE AND TECHNOLOGY, published 2019)

B1: SpyTag-elastin-like polypeptide-SpyTag-elastin-like polypeptide-SpyTag (other)
chain: MKGSSHHHHHHVDAHIVMVDAYKPTKLDGHGVGVPGVGVPGVGVPGEGVPGVGVPGVGVPGVGVPGVGVPGEGVPGVGVPGVGVPGVGVPGVGVPGEGVPGVGVPGVGELAHIVMVDAYKPTKTSVPGVGVPGVGVPGEGVPGVGVPGVGVPGVGVPGVGVPGEGVPGVGVPGVGVPGVGVPGVGVPGEGVPGVGVPGVGVPGGLLDAHIVMVDAYKPTKLEWKK
notes: Recombinant protein with three SpyTags; It forms the covalent network with BCB; also called AAA; SpyTag-ELP-SpyTag-ELP-SpyTag
B2: SpyTag-elastin-CarHC-elastin-SpyTag (other)
chain: MKGSSHHHHHHVDAHIVMVDAYKPTKLDGHGVGVPGVGVPGVGVPGEGVPGVGVPGVGVPGVGVPGVGVPGEGVPGVGVPGVGVPGVGVPGVGVPGEGVPGVGVPGVGELPEDLGTGLLEALLRGDLAGAEALFRRGLRFWGPEGVLEHLLLPVLREVGEAWHRGEIGVAEEHLASTFLRARLQELLDLAGFPPGPPVLVTTPPGERHEIGAMLAAYHLRRKGVPALYLGPDTPLPDLRALARRLGAGAVVLSAVLSEPLRALPDGALKDLAPRVFLGGQGAGPEEARRLGAEYMEDLKGLAEALWLPRGPEKEAITSVPGVGVPGVGVPGEGVPGVGVPGVGVPGVGVPGVGVPGEGVPGVGVPGVGVPGVGVPGVGVPGEGVPGVGVPGVGVPGGLLDAHIVMVDAYKPTKLEWKK
notes: Recombinant telechelic fusion protein (41 kDa) expressed in E. coli and purified on HisTrap; also called ACA; SpyTag-ELP-carHC-ELP-SpyTag

What was measured:
[1] = target: T1, SpyCatcher-elastin-CarHC-elastin-SpyCatcher; experiment: Dynamic shear rheology and erosion tests of the covalently cross-linked (SpyTag-SpyCatcher) hydrogel
T1 construct: Recombinant telechelic fusion protein (68 kDa) with two TEV protease sites, expressed in E. coli; also called BCB; SpyCatcher-ELP-carHC-ELP-SpyCatcher
Description: Protein drugs, an important category of modem therapeutics, have a short half-life time inside the body because of rapid plasma clearance and proteolytic degradation, which constitutes a fundamental challenge for their delivery. The feasibility of using the photoresponsive CarHC-ELP hydrogel system to encapsulate and release protein molecules in a controlled manner was investigated. Two recombinant proteins, SpyTag-elastin-like polypeptide-SpyTag-elastin-like polypeptide-SpyTag (represented by the structural linkage “AAA”) (FIG. 6 and FIG. 13) and BCB, were synthesized with an elastin protein fragment to generate a covalently cross-linked ELP hydrogel. The two proteins were dissolved in PBS to make 10 wt % solutions. Gelation was initiated by mixing the two components at a 2:3 molar ratio and a stoichiometric amount of AdoB₁₂ in the dark. Dynamic shear rheology experiments in time-, frequency- and strain-sweep modes and erosion tests further confirmed the formation of a stable hydrogel (G′=0.96 kPa and G″=0.03 Pa) by AAA+BCB+AdoB₁₂ (FIGS. 14A-14C, respectively, and FIG. 15).

[2] = target: T1, SpyCatcher-elastin-CarHC-elastin-SpyCatc …; experiment: Size-exclusion chromatography of the ACA+BCB reaction product and of the light-degraded gel. The major peak eluted at the void volume. The SpyTag-SpyCatcher bond is covalent.
Experimental: Using an Escherichia coli expression system, sufficient amounts of the ACA (98 mg/L) and BCB (66 mg/L) proteins with high purity (FIG. 6-9) were produced and isolaged. After extensive dialysis against distilled water and lyophilization, the resulting protein powders were readily dissolved in PBS. The two protein solutions, ACA and BCB (10 wt % in PBS), were mixed at an equimolar ratio immediately followed by addition of a stoichiometric amount of AdoB 12 to initiate gelation at room temperature in the dark. A red gel-like material was formed within 5 min; the gelation typically continued for at least 7 h in the dark before any subsequent analysis. The resulting gel was sensitive to light and converted to liquid on exposure to white LED light (30 klux) within 20 min (FIG. 2B). observed gel-sol transition can be explained by the light-induced disassembly of CarHC tetramers (FIGS. 1A & 1B). […] This SEC result further confirmed a sufficient pymerization of the CarHC proteins enabled by the SpyTag-SpyCatcher reaction during gelation.

Binder	binding result [1]	binding result [2]
B1	binds	
B2		binds
